The record followed here is patent US20190367619A1 (ARGENX, published 2019).

T1: human galectin-10-His (recombinant human galectin-10 with TEV-cleavable N-terminal His-tag) (human)
T1 construct: SEC-MALLS: dimer in solution; also called Gal10-His; humanGal10-His
T1 chain: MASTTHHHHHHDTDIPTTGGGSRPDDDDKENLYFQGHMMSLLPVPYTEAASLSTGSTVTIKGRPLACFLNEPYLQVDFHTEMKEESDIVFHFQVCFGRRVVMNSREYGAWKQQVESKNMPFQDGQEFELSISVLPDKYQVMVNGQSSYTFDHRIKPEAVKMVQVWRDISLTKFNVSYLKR

T2: human galectin-10 as coated in ELISA (soluble galectin-10; tag not given) (human, UniProt Q05315 1-142, limits assumed)
T2 construct: also called coated galectin-10; Gal10
T2 sequence: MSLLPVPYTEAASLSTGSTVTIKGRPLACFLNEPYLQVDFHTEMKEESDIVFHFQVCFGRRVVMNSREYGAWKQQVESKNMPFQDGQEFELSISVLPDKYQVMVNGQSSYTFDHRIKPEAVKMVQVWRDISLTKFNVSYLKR

B1: 6F05 Fab (Fab, V domains shown)
VH: QLQLVESGGGLVQPGGSLRLSCAASGFTFSSYAMSWVRQAPGKGLEWVSAINSGGGSTSYADSVKGRFTISRDNAKNTLYLQMNSLKPEDTAVYYCATPGDRLWYYRYDYWGQGTQVTVSS
VL: QAGLTQPPSVSGTLGKAVTISCAGTSSDIGYGNYVSWYQQLPGTAPKLLIYKVSRRASGVPDRFSGSKSGNTASLSISGLQSEDEADYYCASYRYRNNVVFGGGTHLTVL
notes: VH on human CH1 constant domain (with part of the hinge region), VL on human lambda constant domain; also called 6F5; Fab 6F5
B2: 1C09 Fab (Fab, V domains shown)
VH: QVQLVESGPGLVKPSQTLSLTCTVSGGSITTNSYYWSWIRQPPGKGLEWMGAIAYSGSTYYSPSLKSRTSISRDTSKNQFTLHLSSVTPEDTAVYYCARRPNWYRALDAWGQGTLVTVSS
VL: NFMLTQPSAVSVSLGQTARITCQGANLGRYYGIWYQQKPGQAPVQVIYGDSNRPSGIPERFSGSSSGGTATLTISGAQAEDEADYYCQSYESSTSPVFGGGTHLTVL
notes: VH on human CH1 constant domain (with part of the hinge region), VL on human lambda constant domain; also called 1C9; Fab 1C09
B3: 4E08 Fab (Fab, V domains shown)
VH: QVQRQESGPGLVKPSQTLSLTCTVSGGSITTSYYAWSWIRQPPGKGLEWMGVIASDGSTYYSPSLKSRTSISRDTSKNQFSLQLSSVTPEDTAVYYCALYIRGSSWSGWSAYDYWGQGTQVTVSS
VL: QPVLNQPSAVSVSLGQTARITCQGGNFGYYYGSWYQQKPGQAPVLVIYKDSERPSGIPERFSGSSSGGTATLTISRAQAEDEADYYCQSADSSDNPVFGGGTHLTVL
notes: VH on human CH1 constant domain (with part of the hinge region), VL on human lambda constant domain; also called 4E8; Fab 4E8
B4: 1D11 Fab (Fab, V domains shown)
VH: QVQLVESGGGLVQPGGSLRLSCAASGFTFDDYAMSWVRQAPGKGLEWVSGISWNGGSTYYAESMKGRFTISRDNAKNTLYLQMNSLKSEDTAVYYCAKDRNLGYRLGYPYDYWGQGTQVTVSS
VL: QSVLTQPPSVSGSPGETVTISCAGTSSDVGYGNYVSWYQQLPGMAPRLLIYEVNKRASGITDRFSGSKSGNTASLTISGLQSEDEGDYYCASYRSSNNAVFGGGTHLTVL
notes: VH on human CH1 constant domain (with part of the hinge region), VL on human lambda constant domain; also called Fab 1D11; Fab-1D11
B5: scFv 2F09 (periplasmic extract, Myc-tagged) (scFv, not shown: small tags and cut ends)
scFv: QVQVQESGPGLVKPSQTLSLTCTVSGGSITTNYFYWSWIRQSPGKGLEWIGAIAYSGRTYYSPSLKSRTSISRDTSNNQFTLQLSSVTPEDTAVYYCARGPKGLASYYDYWGQGTQVTVSSGGGGSGGGGSGGGGSSSALTQPSAVSVSLGQTARITCQGGNFGYYYVSWYQQKPGQAPVLVIYRDSGRPSGIPERFSGSSSGDTATLTISGAQAEDEADYYCQSGSSSDNTVFGGGTHLTVL
B6: scFv 6E10 (periplasmic extract, Myc-tagged) (scFv, not shown: small tags and cut ends)
scFv: QLQLVESGGGLVQPGGSLRLSCAASGFTFSSYWMYWVRQAPGKGLEWVSAINTGGGSTYYADSVKGRFTISRDNAKNTLYLQMNSLKPEDTALYYCARAGSGVAGTGYDYWGQGTQVTVSSGGGGSGGGGSGGGGSQPVLNQPSAVSVSLGQTARITCQGGNFGYYYVSWYQQKPGQAPVLVIYRDSGRPSGIPERFSGSSSGDTATLTISGAQAEDEADYYCQSGSSSDNAVFGGGTHLTVL
notes: also called 6E010
B7: scFv 6B06 (periplasmic extract, Myc-tagged) (scFv, not shown: small tags and cut ends)
scFv: QVQRQESGPGLVKPSQTLSLTCTVSGGSITTNYYSWSWIRQPPGKGLEWIGYIAYSGSTSYSPSLKSRTSISRDTSNNQFSLQLSSVTPEDTAVYYCARSRSSPTTFGMDYWGKGTLVTVSSGGGGSGGGGSGGGGSSSALTQPSAVSVSLGQTARITCQGGNFGRYYVSWYTQKPGQAPVLVIYQDSERPTGIPERFSGSSSGDTATLTISGAQAEDEADYYCQSGTSSDNIVFGGGTHLTVL
B8: scFv 6F06 (periplasmic extract, Myc-tagged) (scFv, not shown: small tags and cut ends)
scFv: QVQLVESGGGLVQPGGSLRLSCAASEFTFSRYSMSWVRQAPGKGLEWVSTINSGGGSTSYVDSVKGRFTISRDNAKNTLYLQMNSLKPEDTAVYYCTKSQGGISFSTQYGMDYWGKGTLVTVSSGGGGSGGGGSGGGGSNFMLTQPSAVSVSLGQTARITCQGGNFGRYYANWYQQKPGQAPVLVIYKDSERPSGIPERFSGSSSGDTATLTISGAQAEDESDYYCQSGSVSDNAVFGGGTHLAVL
B9: scFv 6A08 (periplasmic extract, Myc-tagged) (scFv, not shown: small tags and cut ends)
scFv: QVQLVESGGGLVQPGGSLRLSCAASGFTFSSYAMSWVRQAPGKGPEWVSAINRGGGSTYYADSVKGRFTISRDNAKNTLYLQMNSLKPEDAAVYYCATPGDRLWYYRYDYWGQGAQVTVSSGGGGSGGGGSGGGGSQTVVTQEPSLSVSPGGTVTLTCGLSSGSVTSSNYPGWYQQTPGQAPRLLIYNTNSRYSGVPNRFSGSISGNKAALIISGAQPEDEADYHCALNRVRGTYRVFGGGTHLTVL
B10: scFv 4E08 (periplasmic extract, Myc-tagged) (scFv, not shown: small tags and cut ends)
scFv: QVQRQESGPGLVKPSQTLSLTCTVSGGSITTSYYAWSWIRQPPGKGLEWMGVIASDGSTYYSPSLKSRTSISRDTSKNQFSLQLSSVTPEDTAVYYCALYIRGSSWSGWSAYDYWGQGTQVTVSSGGGGSGGGGSGGGGSQPVLNQPSAVSVSLGQTARITCQGGNFGYYYGSWYQQKPGQAPVLVIYKDSERPSGIPERFSGSSSGGTATLTISRAQAEDEADYYCQSADSSDNPVFGGGTHLTVL
notes: also called 4E8

For one assay, the target named is T1, human galectin-10-His (recombinant …). Kind of assay: BLI OctetRed96, Fab on galectin-10-His.
Regarding B1, the Kd worked out at 188 nM and the off-rate (koff) came out at 0.00356 s⁻¹.

In the case of B2, the Kd was 13.4 nM and the off-rate constant (koff) is 0.000383 s⁻¹.

With B3, the Kd is 147 nM and the koff worked out at 0.00248 s⁻¹.

B4: the Kd was 10.7 nM and the koff is 0.000299 s⁻¹.

The next assay deals with T2, human galectin-10 as coated in ELISA …. Kind of assay: ELISA, scFv periplasmic extract on coated soluble galectin-10, anti-Myc-HRP.
Regarding B5, the “ELISA binding (OD values)” value was 3.6 OD.

For the molecule B6, the “ELISA binding (OD values)” value came to 3.7 OD.

Consider B7, for which the “ELISA binding (OD values)” value was determined as 3.7 OD.

Regarding B8, the “ELISA binding (OD values)” value was 3.8 OD.

For B9, the “ELISA binding (OD values)” value came to 3.5 OD.

On to B10, for which the “ELISA binding (OD values)” value worked out at 3.6 OD.

Another assay concerns the target T1, human galectin-10-His (recombinant …). The experiment in a line: ELISA, Fab on coated galectin-10-His.
In the case of B1, the Bmax was found to be 0.8 OD and the EC50 was 26.7 nM.

On to B2, for which the Bmax is 1 OD and the 50% effective concentration (EC50) was 1.9 nM.

In the case of B3, the Bmax stood at 0.7 OD and the EC50 worked out at 25.6 nM.

Turning to B4, the Bmax was 0.9 OD and the EC50 turned out to be 1.6 nM.

The next assay shares this target. Kind of assay: BLI Octet RED96, galectin-10-His on anti-Penta-His tips, scFv periplasmic extract 1/10. How it is done: Briefly, galectin-10-His tagged diluted in Kinetic Buffer was captured on Anti-Penta His 1K sensor tips until an immobilization level of 1 nm was reached. Then, diluted periplasmic extracts (1/10) were applied and association/dissociation to immobilized galectin-10-His was measured using the ForteBio Data analysis 9.0 software (subtraction of the reference Tips, 1.1 binding model). During the screening, only the dissociation (off-rate) of the scFv can be determined since the effective concentration of the scFv is unknown and can vary a lot from clone to clone. […] Therefore, taking into consideration the ELISA and BLI data, a new panel of lead scFvs was selected.
Take B5: the koff amounted to 0.0099 s⁻¹.

As to B6, the dissociation rate constant (koff) was 0.016 s⁻¹.

Turning to B7, the dissociation rate constant (koff) stood at 0.0058 s⁻¹.

B8: the koff came out at 0.0057 s⁻¹.

Regarding B9, the koff was found to be 0.0082 s⁻¹.

As to B10, the koff was 0.0094 s⁻¹.
